Experimental data: paper PMC6379680, “The Leishmania PABP1–eIF4E4 interface: a novel 5′–3′ interaction architecture for trans-spliced mRNAs” (Nucleic Acids Research, 2018)
Positions count from the first letter of the chain named. In names and notes the source's numbering stands. Ends that are not written are not given here.

Tests used:
[1] = target: eIF4E4(iv), an approximately 5 kDa region of the extended N-terminal domain of Leishmania major eIF4E4 (Leishmania major); experiment: MST; labelled eIF4E4(iv) held constant, non-labelled PABP1 section varied (16 tubes); Nanotemper Monolith NT.115
[2] = target: full-length Leishmania eIF4G3 (Leishmania major) (UniProt Q4QEK5); experiment: fluorescence polarisation; fluorescence anisotropy, PTI QuantaMaster; Alexa-647-labelled eIF4G3, eIF4E4(v)::PABP1(J) added
[3] = target: eIF4G (Saccharomyces cerevisiae) (UniProt P39935); conditions: cited from earlier work
Sequence of eIF4G (Saccharomyces cerevisiae) (P39935 whole entry, the tested form may be a part): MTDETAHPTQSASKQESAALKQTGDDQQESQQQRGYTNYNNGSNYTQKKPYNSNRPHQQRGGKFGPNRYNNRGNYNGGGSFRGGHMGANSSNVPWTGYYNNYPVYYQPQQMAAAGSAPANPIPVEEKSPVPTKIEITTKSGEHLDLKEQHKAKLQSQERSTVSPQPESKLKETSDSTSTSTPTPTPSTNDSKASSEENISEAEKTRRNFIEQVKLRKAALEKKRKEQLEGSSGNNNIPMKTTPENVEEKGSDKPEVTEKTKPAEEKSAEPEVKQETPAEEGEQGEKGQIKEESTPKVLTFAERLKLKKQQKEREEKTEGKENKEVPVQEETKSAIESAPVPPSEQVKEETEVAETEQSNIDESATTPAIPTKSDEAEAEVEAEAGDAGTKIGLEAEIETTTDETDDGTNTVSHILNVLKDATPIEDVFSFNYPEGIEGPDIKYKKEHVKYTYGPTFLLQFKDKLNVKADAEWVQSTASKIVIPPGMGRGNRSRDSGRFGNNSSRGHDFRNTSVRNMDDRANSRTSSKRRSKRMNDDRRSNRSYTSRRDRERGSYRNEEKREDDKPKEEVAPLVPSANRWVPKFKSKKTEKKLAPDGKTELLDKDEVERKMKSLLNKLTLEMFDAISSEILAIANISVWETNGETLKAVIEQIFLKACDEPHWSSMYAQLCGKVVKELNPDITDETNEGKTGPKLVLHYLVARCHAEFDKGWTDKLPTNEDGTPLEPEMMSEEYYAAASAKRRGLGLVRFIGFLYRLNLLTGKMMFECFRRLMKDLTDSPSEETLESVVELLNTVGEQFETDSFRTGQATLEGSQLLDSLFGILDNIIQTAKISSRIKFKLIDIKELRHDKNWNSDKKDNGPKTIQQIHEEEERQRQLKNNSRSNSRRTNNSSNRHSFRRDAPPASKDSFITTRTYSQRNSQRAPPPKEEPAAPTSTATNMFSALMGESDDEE

[4] = target: T1, PABP1(J), the PABC domain of Leishmania major PABP1 prepared as segment J (Leishmania major, UniProt E9AFX7 482-560); experiment: MST; labelled eIF4E4(iv) held constant, non-labelled PABP1 section varied (16 tubes); Nanotemper Monolith NT.115; conditions: both partners purified
T1 construct: 15N,13C-labelled form used in NMR; also called PABP1 PABC domain; PABC1; source: E. coli NiCo21(DE3), synthetic reading frame, purified (cobalt IDA resin, gel filtration); also co-expressed with eIF4E4(v) from a dual expression plasmid
T1 sequence: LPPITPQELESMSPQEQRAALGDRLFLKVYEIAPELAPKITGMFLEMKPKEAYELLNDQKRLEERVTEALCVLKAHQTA

[5] = target: T1, PABP1(J), the PABC domain of Leishmania …; experiment: MST; FITC-labelled synthetic 14mer peptides with PABP1(J); conditions: both partners purified
[6] = target: Leishmania major eIF4E4 segment (iv) (Leishmania major); experiment: SPR; eIF4E4(iv) immobilised by amine coupling on a Biacore CM5 chip, PABP1(J) passed over, Biacore T200; homogeneous 1:1 binding model
eIF4E4(iv) = experiment: Microscale thermophoresis of mutated PABP1(J) F525A with eIF4E4(iv); type: binding, Leishmania major
Description: Microscale thermophoresis experiments were performed using eIF4E4(iv) or eIF4G3 labelled with a fluorescent tag (Monolith Protein Labeling Kit Red-Maleimide), or the eIF4G3 peptide […] labeled with fluorescein-5-isothiocyanate. The concentration of the fluorescently labelled protein (eIF4E4(iv)) was held constant, while the concentration of non-labelled ligand protein was varied. The experiment was conducted by preparing 16 tubes with various ratios of the interacting labelled/non-labelled proteins. The solutions were introduced into capillaries, which were then loaded into a Nanotemper Monolith NT.115 instrument for measurement. […] In order to maximise confidence in the calculated dissociation constant values (based on kON and kOFF values), two types of model were fitted to the raw data: a homogeneous 1:1 binding model, and a heterogeneous 1:1 two-ligand model. […] Fluorescence anisotropy measurements were performed using a PTI QuantaMaster fluorimeter. […]
We wanted to establish a quantitative understanding of the relative significance of interactions between the Leishmania cap-binding complex factors eIF4E4, eIF4G3 and PABP1 using protein domains or full-length proteins, rather than peptides. […]

eIF4E4(v):PABP1(J) = experiment: Fluorescence anisotropy, Alexa-647-labelled eIF4G3 binding to the complex eIF4E4(v):PABP1(J); parameters: species or system Leishmania; conditions: Alexa-647-labelled eIF4G3, eIF4E4(v)::PABP1(J) added, read-out: KD (average of calculated KD values)
Description: (§1) Microscale thermophoresis experiments were performed using eIF4E4(iv) or eIF4G3 labelled with a fluorescent tag (Monolith Protein Labeling Kit Red-Maleimide), or the eIF4G3 peptide […] labeled with fluorescein-5-isothiocyanate. The concentration of the fluorescently labelled protein (eIF4E4(iv)) was held constant, while the concentration of non-labelled ligand protein was varied. The experiment was conducted by preparing 16 tubes with various ratios of the interacting labelled/non-labelled proteins. The solutions were introduced into capillaries, which were then loaded into a Nanotemper Monolith NT.115 instrument for measurement. For the SPR experiments, eIF4E4(iv) was immobilized via amine coupling to a Biacore CM5 sensor chip (GE Healthcare Life Sciences) and titrations against PABP1(J) were performed in a Biacore T200 instrument. In order to maximise confidence in the calculated dissociation constant values (based on kON and kOFF values), two types of model were fitted to the raw data: a homogeneous 1:1 binding model, and a heterogeneous 1:1 two-ligand model. […] Fluorescence anisotropy measurements were performed using a PTI QuantaMaster fluorimeter. […]
(§2) Figure 5. Quantitative characterization of interactions of Leishmania cap-complex proteins. […] Fluorescence anisotropy measurements (C) detected binding of Alexa-647-labelled eIF4G3 to the complex eIF4E4(v):PABP1(J). […]

PABP1 = experiment: Microscale thermophoresis, Alexa-647-labelled eIF4G3 with PABP1; type: binding, Leishmania; conditions: Alexa-647-labelled eIF4G3 and PABP1
Description: as §1, §2

PABP1(J) F525A (from UniProt E9AFX7) (domain or fragment)
Kd [1]: 0.55 µM

heterodimeric complex eIF4E4(v):PABP1(J) (from UniProt E9AFX7 482-560)
Kd [2]: 0.34 µM

eIF4E (from UniProt P07260)
Kd [3]: 0.0023 µM

B1: eIF4E4(iv), an approximately 5 kDa region of the extended N-terminal domain of Leishmania major eIF4E4 (domain or fragment)
chain: PTRFSPATVPRHHMNPNATEFMPGRRNGPDGGLEALPTSTAD
modifications: also: Alexa 647 label (Red-Maleimide) for MST
Kd [4]: 0.022 µM

B2: eIF4E4 PAM2-motif FITC-labelled 14mer peptide, N143A (peptide)
peptide: HHMNPAATEFMPGR
modifications: also: FITC label
notes: source: synthetic peptide (Thermo Fisher Scientific, HPLC-purified to 98%)
Kd [5]: 0.0692 ± 0.0049 µM

B3: Leishmania major PABP1 segment J (PABC domain) (domain or fragment)
chain: T1 sequence
modifications: here or on the partner: 13C,15N-labelled in the NMR experiment
Kd [6]: 0.16 µM

B4: PABP1(J) F525A: PABC domain of Leishmania PABP1 (segment J) with phenylalanine 525 mutated to alanine (protein)
chain: T1 sequence with F44A
Kd (eIF4E4(iv); eIF4E4(iv) + PABP1(J) F525A, average of three independent titrations): 0.55 µM | KD relative to the non-mutated PABP1(J) value (eIF4E4(iv); ratio of KD values): 25 times

B5: eIF4E4 PAM2-motif FITC-labelled 14mer peptide, M140A (peptide)
peptide: HHANPNATEFMPGR
modifications: also: FITC label
notes: as for B2
Kd [5]: 0.0343 ± 0.0013 µM

B6: eIF4G3: full-length Leishmania eIF4G3, Alexa-647-labelled (protein)
chain: MQFTVEQIRSVRNNYLEPPYPGFSLDEVVRRRRLTQTKLVRGENAWVAKGTAQTTEEWVQRLLHGTLNKLTEENKDIMIDKLLTKELFATEDIMNMVVNIIFKKALDEPENSKLYAGVCHSLALYEAKVLRDGHKGERPQSQLRDAIISTAQHEFRTLSKELSKMEDKSEEELEYERSNVMRRKRSNMRFIGELYLCTALTHSTMFTVMDLTMRCSDKTGFPSSENIELLAALLNTIGDRLDKNHKKTLDPYFTSLENFNKKSDCPYPPRIRFKIMDLLDLRKRGWGLKPKPVKAALPPSHGKDKKYATAPPPKKGGRDQGSAAAASKSWRDAATTKTGTAAAPAPSADKGLNGRGTSSAAPAANTAALSSSAASTAAATAPAGASFRDEASPQVPLVKFELRVASMFQEWVADRTNDVILHWVDQFNTCDRFFESESELCVAVAQEVIHSACTTTRKDAQREAFSFLVVGLYMIDTEVFDGFASALASAIEDGLLEDVPKFGERFMSMLRLTSTEQETRADVYFDAANVLRLTYNRLESPDDSAVDTLMSFWDRVPLPSTDEENMIRMDLDVVYSLCNPEGVQDGLEKLLSRIIHSMLQMQLMDAEVLDEFLCLDVEDGLCAKVIADYKERFPK
modifications: Alexa 647 label (Monolith Protein Labeling Kit Red-Maleimide) in the fluorescence anisotropy and MST experiments; left off: His12, end not stated, kept
notes: full-length Leishmania eIF4G3, Alexa-647-labelled
Kd (eIF4E4(v):PABP1(J)): 0.34 µM | binding (PABP1): no binding could be detected

B7: eIF4E4 PAM2-motif FITC-labelled 14mer peptide, E146A (peptide)
peptide: HHMNPNATAFMPGR
modifications: also: FITC label
notes: as for B2
Kd [5]: 0.163 ± 0.0164 µM

B8: eIF4E4 PAM2-motif FITC-labelled 14mer peptide, M148A (peptide)
peptide: HHMNPNATEFAPGR
modifications: also: FITC label
notes: as for B2
Kd [5]: 0.0628 ± 0.0031 µM

B9: eIF4E4 PAM2-motif FITC-labelled 14mer peptide, WT (peptide)
peptide: HHMNPNATEFMPGR
modifications: also: FITC label
notes: also called 'wild-type' peptide; 14mer eIF4E4 peptide; source: synthetic peptide (Thermo Fisher Scientific, HPLC-purified to 98%)
Kd [5]: 0.033 ± 0.0009 µM

B10: eIF4E4 PAM2-motif FITC-labelled 14mer peptide, F147A (peptide)
peptide: HHMNPNATEAMPGR
modifications: also: FITC label
notes: also called F147A mutant peptide; source: synthetic peptide (Thermo Fisher Scientific, HPLC-purified to 98%)
Kd [5]: 0.127 ± 0.0134 µM
